Experimental findings from paper PMC7666536 (Cell, 2020) are described below.

The assay has as its target SARS-CoV-2 nsp12 (RNA-dependent RNA polymerase) (SARS-CoV-2, UniProt P0DTD1). The assay can be described thus: cryo-EM structure.

B1: SARS-CoV-2 nsp9 (full-length, residues N1–Q113) (natural protein)
chain: NNELSPVALRQMSCAAGTTQTACTDDNALAYYNTTKGGRFVLALLSDLQDLKWARFPKSDGTGTIYTELEPPCRFVTDTPKGPKVKYLYFIKGLNNLNRGMVLGSLAATVRLQ
As for B1, the binding result is on record as “binds”.
